Measured values: the supplement of paper PMC10567573

B1: TSPAN10 (parent)
chain: EGCGPPLRRWLRANLAASGGYAIA

Variants of: B1
Experiment: protein stability index of a GFP-peptide fusion (GPS, HEK-293T) (PSI 1-6); higher = more stable
Conditions: c terminus: a fixed tail appended
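Further: lentivirally expressed fusions sorted by FACS into six bins by GFP to DsRed ratio, PSI derived from sequencing read proportions per bin multiplied by bin number.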

For EGCGPPLRHWLRANLAASGGYAIA, which protein stability index is on record?
Its protein stability index is 1.58.

Which protein stability index does the source give for EGCGPPLRVWLRANLAASGGYAIA here?
The protein stability index was 1.65.

With EGCGPPLRKWLRANLAASGGYAIA as the variant, how does the protein stability index read?
The protein stability index was 1.79.

For EGCGPPLRRWLNANLAASGGYAIA, which protein stability index is on record?
Its protein stability index is 1.73.

Which protein stability index does the source give for EGCGPPLRRWLGANLAASGGYAIA here?
Its protein stability index is 1.82.

Which protein stability index does the source give for EGCGPPLRRWLAANLAASGGYAIA here?
Its protein stability index is 1.75.

With EGCGPPLRRWLIANLAASGGYAIA as the variant, how does the protein stability index read?
The protein stability index was 2.82.

With EGCGPPLRRWLCANLAASGGYAIA as the variant, how does the protein stability index read?
The protein stability index was 2.17.

Which protein stability index does the source give for EGCGPPLRRWLTANLAASGGYAIA here?
Its protein stability index is 1.82.

Which protein stability index does the source give for EGCGPPLRRWLHANLAASGGYAIA here?
The protein stability index was 2.47.

Which protein stability index does the source give for EGCGPPLRRWLEANLAASGGYAIA here?
Its protein stability index is 2.23.

Which protein stability index does the source give for EGCGPPLRRWLMANLAASGGYAIA here?
The protein stability index was 1.9.

With EGCGPPLRRWLQANLAASGGYAIA as the variant, how does the protein stability index read?
The protein stability index was 2.17.

For EGCGPPLRRWLKANLAASGGYAIA, which protein stability index is on record?
The protein stability index was 2.92.

For EGCGPPLRRWLYANLAASGGYAIA, which protein stability index is on record?
Its protein stability index is 2.84.

With EGCGPPLRRWLFANLAASGGYAIA as the variant, how does the protein stability index read?
The protein stability index was 2.29.

Which protein stability index does the source give for EGCGPPLRRWLLANLAASGGYAIA here?
The protein stability index was 3.2.

For EGCGPPLRRWLPANLAASGGYAIA, which protein stability index is on record?
Its protein stability index is 2.5.

With EGCGPPLRRWLWANLAASGGYAIA as the variant, how does the protein stability index read?
Its protein stability index is 3.67.

For EGCGPPLRRWLSANLAASGGYAIA, which protein stability index is on record?
The protein stability index was 2.58.

Which protein stability index does the source give for EGCGPPLRRWLDANLAASGGYAIA here?
The protein stability index was 1.8.

Which protein stability index does the source give for EGCGPPRRRWLRANLAASGGYAIA here?
The protein stability index was 3.1.

Which protein stability index does the source give for EGCGPPQRRWLRANLAASGGYAIA here?
Its protein stability index is 1.36.

Which protein stability index does the source give for EGCGPPKRRWLRANLAASGGYAIA here?
Its protein stability index is 1.97.

With EGCGPPERRWLRANLAASGGYAIA as the variant, how does the protein stability index read?
The protein stability index was 1.78.

Which protein stability index does the source give for EGCGPPYRRWLRANLAASGGYAIA here?
The protein stability index was 2.

With EGCGPPTRRWLRANLAASGGYAIA as the variant, how does the protein stability index read?
The protein stability index was 2.97.

Which protein stability index does the source give for EGCGPPHRRWLRANLAASGGYAIA here?
Its protein stability index is 2.39.

With EGCGPPVRRWLRANLAASGGYAIA as the variant, how does the protein stability index read?
The protein stability index was 2.3.

With EGCGPPCRRWLRANLAASGGYAIA as the variant, how does the protein stability index read?
Its protein stability index is 1.87.

Which protein stability index does the source give for EGCGPPFRRWLRANLAASGGYAIA here?
The protein stability index was 1.4.

Which protein stability index does the source give for EGCGPPSRRWLRANLAASGGYAIA here?
The protein stability index was 2.29.

With EGCGPPIRRWLRANLAASGGYAIA as the variant, how does the protein stability index read?
The protein stability index was 1.39.

With EGCGPPDRRWLRANLAASGGYAIA as the variant, how does the protein stability index read?
Its protein stability index is 2.33.

With EGCGPPGRRWLRANLAASGGYAIA as the variant, how does the protein stability index read?
Its protein stability index is 1.82.

Which protein stability index does the source give for EGCGPPNRRWLRANLAASGGYAIA here?
The protein stability index was 2.67.

Which protein stability index does the source give for EGCGPPARRWLRANLAASGGYAIA here?
The protein stability index was 1.91.

For EGCGPPWRRWLRANLAASGGYAIA, which protein stability index is on record?
Its protein stability index is 2.05.

With EGCGPPPRRWLRANLAASGGYAIA as the variant, how does the protein stability index read?
The protein stability index was 2.27.

With EGCGPPMRRWLRANLAASGGYAIA as the variant, how does the protein stability index read?
Its protein stability index is 2.39.

Which protein stability index does the source give for EGCGPMLRRWLRANLAASGGYAIA here?
Its protein stability index is 1.84.

With EGCGPDLRRWLRANLAASGGYAIA as the variant, how does the protein stability index read?
The protein stability index was 1.94.

Which protein stability index does the source give for EGCGPTLRRWLRANLAASGGYAIA here?
The protein stability index was 2.46.

Which protein stability index does the source give for EGCGPKLRRWLRANLAASGGYAIA here?
Its protein stability index is 1.97.

For EGCGPHLRRWLRANLAASGGYAIA, which protein stability index is on record?
Its protein stability index is 1.62.

Which protein stability index does the source give for EGCGPYLRRWLRANLAASGGYAIA here?
Its protein stability index is 1.62.

For EGCGPNLRRWLRANLAASGGYAIA, which protein stability index is on record?
Its protein stability index is 2.29.

For EGCGPALRRWLRANLAASGGYAIA, which protein stability index is on record?
Its protein stability index is 2.2.

With EGCGPGLRRWLRANLAASGGYAIA as the variant, how does the protein stability index read?
Its protein stability index is 1.86.

Which protein stability index does the source give for EGCGPRLRRWLRANLAASGGYAIA here?
Its protein stability index is 1.95.

With EGCGPWLRRWLRANLAASGGYAIA as the variant, how does the protein stability index read?
Its protein stability index is 1.5.

With EGCGPELRRWLRANLAASGGYAIA as the variant, how does the protein stability index read?
Its protein stability index is 1.48.

Which protein stability index does the source give for EGCGPLLRRWLRANLAASGGYAIA here?
Its protein stability index is 1.03.

Which protein stability index does the source give for EGCGPQLRRWLRANLAASGGYAIA here?
The protein stability index was 1.89.

With EGCGPSLRRWLRANLAASGGYAIA as the variant, how does the protein stability index read?
The protein stability index was 1.72.

With EGCGPVLRRWLRANLAASGGYAIA as the variant, how does the protein stability index read?
Its protein stability index is 1.89.

With EGCVPPLRRWLRANLAASGGYAIA as the variant, how does the protein stability index read?
Its protein stability index is 2.25.

With EGCTPPLRRWLRANLAASGGYAIA as the variant, how does the protein stability index read?
The protein stability index was 2.5.

For EGCMPPLRRWLRANLAASGGYAIA, which protein stability index is on record?
The protein stability index was 1.83.

Which protein stability index does the source give for EGCAPPLRRWLRANLAASGGYAIA here?
The protein stability index was 1.54.

For EGCLPPLRRWLRANLAASGGYAIA, which protein stability index is on record?
The protein stability index was 1.58.

With EGCDPPLRRWLRANLAASGGYAIA as the variant, how does the protein stability index read?
The protein stability index was 2.1.

Which protein stability index does the source give for EGCWPPLRRWLRANLAASGGYAIA here?
The protein stability index was 2.15.

For EGCEPPLRRWLRANLAASGGYAIA, which protein stability index is on record?
Its protein stability index is 1.98.

Which protein stability index does the source give for EGCQPPLRRWLRANLAASGGYAIA here?
The protein stability index was 2.

Which protein stability index does the source give for EGCKPPLRRWLRANLAASGGYAIA here?
The protein stability index was 2.31.

Which protein stability index does the source give for EGCHPPLRRWLRANLAASGGYAIA here?
Its protein stability index is 2.58.

For EGCCPPLRRWLRANLAASGGYAIA, which protein stability index is on record?
The protein stability index was 1.32.

For EGCRPPLRRWLRANLAASGGYAIA, which protein stability index is on record?
Its protein stability index is 2.44.

For EGCYPPLRRWLRANLAASGGYAIA, which protein stability index is on record?
Its protein stability index is 1.83.

With EGCSPPLRRWLRANLAASGGYAIA as the variant, how does the protein stability index read?
Its protein stability index is 2.09.

For EGCIPPLRRWLRANLAASGGYAIA, which protein stability index is on record?
Its protein stability index is 2.28.

Which protein stability index does the source give for EGCFPPLRRWLRANLAASGGYAIA here?
Its protein stability index is 1.27.

Which protein stability index does the source give for EGCNPPLRRWLRANLAASGGYAIA here?
The protein stability index was 2.06.

With EGCPPPLRRWLRANLAASGGYAIA as the variant, how does the protein stability index read?
Its protein stability index is 2.04.

For EGCGPPLRRPLRANLAASGGYAIA, which protein stability index is on record?
The protein stability index was 3.39.

For EGCGPPLRRMLRANLAASGGYAIA, which protein stability index is on record?
The protein stability index was 2.62.

With EGCGPPLRRLLRANLAASGGYAIA as the variant, how does the protein stability index read?
The protein stability index was 2.42.

For EGCGPPLRRHLRANLAASGGYAIA, which protein stability index is on record?
Its protein stability index is 2.53.

With EGCGPPLRRRLRANLAASGGYAIA as the variant, how does the protein stability index read?
Its protein stability index is 3.5.

With EGCGPPLRRDLRANLAASGGYAIA as the variant, how does the protein stability index read?
Its protein stability index is 3.25.

For EGCGPPLRRELRANLAASGGYAIA, which protein stability index is on record?
Its protein stability index is 3.4.

For EGCGPPLRRTLRANLAASGGYAIA, which protein stability index is on record?
The protein stability index was 3.01.

For EGCGPPLRRILRANLAASGGYAIA, which protein stability index is on record?
Its protein stability index is 2.94.

With EGCGPPLRRNLRANLAASGGYAIA as the variant, how does the protein stability index read?
Its protein stability index is 2.55.

Which protein stability index does the source give for EGCGPPLRRGLRANLAASGGYAIA here?
Its protein stability index is 3.35.

Which protein stability index does the source give for EGCGPPLRRCLRANLAASGGYAIA here?
Its protein stability index is 2.03.

With EGCGPPLRRFLRANLAASGGYAIA as the variant, how does the protein stability index read?
Its protein stability index is 1.61.

For EGCGPPLRRVLRANLAASGGYAIA, which protein stability index is on record?
Its protein stability index is 1.89.

With EGCGPPLRRKLRANLAASGGYAIA as the variant, how does the protein stability index read?
Its protein stability index is 2.09.

For EGCGPPLRRALRANLAASGGYAIA, which protein stability index is on record?
Its protein stability index is 3.63.

With EGCGPPLRRYLRANLAASGGYAIA as the variant, how does the protein stability index read?
The protein stability index was 2.44.

For EGCGPPLRRSLRANLAASGGYAIA, which protein stability index is on record?
The protein stability index was 2.81.

Which protein stability index does the source give for EGCGPPLRRQLRANLAASGGYAIA here?
The protein stability index was 2.24.
